These results are taken from the Human Domainome abundance scans (Beltran et al. 2025).

The chains are these.
B1: SWI/SNF complex subunit SMARCC2, residues 599 to 641; numbered along this chain, Q8TAQ2 (parent)
chain: REWTEQETLLLLEALEMYKDDWNKVSEHVGSRTQDECILHFLR

± gives the uncertainty stated by the source.

The variants in the series derive from B1. Description: abundance fitness (aPCA) (normalised: wild type 0, dead -1); higher = more abundant; growth selection in yeast, the domain comes from the species named. The note with it: Homo sapiens.
Regarding FEWTEQETLLLLEALEMYKDDWNKVSEHVGSRTQDECILHFLR [R1F], the abundance fitness worked out at 0.36 ± 0.11.

Regarding AEWTEQETLLLLEALEMYKDDWNKVSEHVGSRTQDECILHFLR [R1A], the abundance fitness was determined as 0.244 ± 0.084.

Regarding REWTEQETLLLLEALEMYKDDWNKVSEHVGERTQDECILHFLR [S31E], the abundance fitness is 0.12 ± 0.34.

On to REWTEQETLLLLEALEMYKDDWNKVSEHVGPRTQDECILHFLR [S31P], for which the abundance fitness is -0.434 ± 0.14.

On to REWTEQETLLLLEALEMYKDDWNKVSESVGSRTQDECILHFLR [H28S], for which the abundance fitness was -0.747 ± 0.13.

Regarding REWTEQETLLLLEALEMYKDDWNKVSEYVGSRTQDECILHFLR [H28Y], the abundance fitness was -0.225 ± 0.13.

For REWTEQETLLLLEALEMPKDDWNKVSEHVGSRTQDECILHFLR [Y18P], the abundance fitness is -0.637 ± 0.091.

As to REWTEQETLLLLEALEMHKDDWNKVSEHVGSRTQDECILHFLR [Y18H], the abundance fitness stood at 0.106 ± 0.1.

Consider REWTEQETLLLLEALEMYKDAWNKVSEHVGSRTQDECILHFLR [D21A], for which the abundance fitness was -0.172 ± 0.095.

Consider REWTEQETLLLLEALEMYKDQWNKVSEHVGSRTQDECILHFLR [D21Q], for which the abundance fitness was -0.122 ± 0.086.

Regarding REWTEQETLLLLEALEMYKDGWNKVSEHVGSRTQDECILHFLR [D21G], the abundance fitness was -0.315 ± 0.1.

As for REWTEQETLLLLEALEMYKDDWNKNSEHVGSRTQDECILHFLR [V25N], the abundance fitness was -0.275 ± 0.17.

For the variant REWTEQETLLLLEALEMYKDDWNKPSEHVGSRTQDECILHFLR [V25P], the abundance fitness is -0.823 ± 0.22.

As to REWTEQETLLLLEALEMYKDDWNKVSEHVGSRTQDEAILHFLR [C37A], the abundance fitness is -0.332 ± 0.094.

Consider REWTEQETLLLLEALEMYKDDWNKVSEHVGSRTQDESILHFLR [C37S], for which the abundance fitness is -0.428 ± 0.094.

For the variant REWTEQETLLLLEALEMYKDDWNKVSEHVGSRTQDEHILHFLR [C37H], the abundance fitness was -0.353 ± 0.45.

Consider REWTEQETLLLLEALEDYKDDWNKVSEHVGSRTQDECILHFLR [M17D], for which the abundance fitness was -0.035 ± 0.1.

Take REWTEQETLLLLEALEMYKDDWNKVSEHVMSRTQDECILHFLR [G30M]: the abundance fitness was -0.341 ± 0.12.

For the variant REWTEQETLLLLEALEMYKDDWNKVSEHVYSRTQDECILHFLR [G30Y], the abundance fitness is -0.143 ± 0.25.

For the variant REWTEQEFLLLLEALEMYKDDWNKVSEHVGSRTQDECILHFLR [T8F], the abundance fitness was -0.224 ± 0.14.

As to REWTEQENLLLLEALEMYKDDWNKVSEHVGSRTQDECILHFLR [T8N], the abundance fitness was found to be 0.287 ± 0.2.

Turning to REWTEQETLLLLEAAEMYKDDWNKVSEHVGSRTQDECILHFLR [L15A], the abundance fitness came out at 0.409 ± 0.064.

As for REWTEQETLLLLEALEMYKDDWNKVSEHVGSRTQDECTLHFLR [I38T], the abundance fitness was found to be 0.26 ± 0.074.

Turning to REWTEQETLLLLEALEMYKDDWNKVSEHVGSRTQDECKLHFLR [I38K], the abundance fitness turned out to be 0.347 ± 0.079.

Consider REWTEQETLLLLEALEMYKDDWNKVSEHVGSRTQDECVLHFLR [I38V], for which the abundance fitness was -0.019 ± 0.11.

On to REWTEQETLLLLEALEMYKDDWNKVSEHVGSRTQDECNLHFLR [I38N], for which the abundance fitness turned out to be 0.274 ± 0.12.

Consider REWTEQETLLLLEALEMYKDDWNKVSEHVGSRTQDECYLHFLR [I38Y], for which the abundance fitness amounted to 0.077 ± 0.092.

Turning to RHWTEQETLLLLEALEMYKDDWNKVSEHVGSRTQDECILHFLR [E2H], the abundance fitness was 0.287 ± 0.074.

For RNWTEQETLLLLEALEMYKDDWNKVSEHVGSRTQDECILHFLR [E2N], the abundance fitness stood at 0.317 ± 0.092.

Consider RRWTEQETLLLLEALEMYKDDWNKVSEHVGSRTQDECILHFLR [E2R], for which the abundance fitness amounted to 0.165 ± 0.061.

As for RMWTEQETLLLLEALEMYKDDWNKVSEHVGSRTQDECILHFLR [E2M], the abundance fitness turned out to be 0.135 ± 0.18.

Turning to REWTEQETLLLLEALEMYKDDWNKVSEHVGSRTQDECILNFLR [H40N], the abundance fitness is -0.343 ± 0.16.

REWTEQETLLLLEALEMYKDDWNKVSEHVGSRTQDECILHFQR [L42Q]: the abundance fitness amounted to 0.351 ± 0.098.

With REWTEQETLLLLEALEMYKDDWNKVSEHVGSRTQDECILHFSR [L42S], the abundance fitness worked out at 0.376 ± 0.057.

Take REWTEQETLLLLEALEMYKDDTNKVSEHVGSRTQDECILHFLR [W22T]: the abundance fitness is -0.433 ± 0.11.

As for REWTEQETLLLLEALEMYKDDDNKVSEHVGSRTQDECILHFLR [W22D], the abundance fitness was -0.339 ± 0.18.

As for REWTEQETLLLLEALEMYKDDHNKVSEHVGSRTQDECILHFLR [W22H], the abundance fitness is -0.231 ± 0.18.

In the case of REWTEQETLLLLEALEMYKDDKNKVSEHVGSRTQDECILHFLR [W22K], the abundance fitness was -0.367 ± 0.15.

As to REWTEQETLLLLEALEMYKDDQNKVSEHVGSRTQDECILHFLR [W22Q], the abundance fitness is -0.887 ± 0.24.

REWTEQETLLLLEALEMYKDDVNKVSEHVGSRTQDECILHFLR [W22V]: the abundance fitness is -0.529 ± 0.086.

In the case of REWTEQETLLLLEALEMYKDDNNKVSEHVGSRTQDECILHFLR [W22N], the abundance fitness is -0.759 ± 0.15.

As for REWTEQETLLLLEALEMYKDDWNKVSGHVGSRTQDECILHFLR [E27G], the abundance fitness was -0.038 ± 0.092.

Take REWTEQETLLLLEALEMYKDDWNKVSQHVGSRTQDECILHFLR [E27Q]: the abundance fitness is -0.244 ± 0.15.

In the case of REWTEQETLLLLEDLEMYKDDWNKVSEHVGSRTQDECILHFLR [A14D], the abundance fitness is -0.806 ± 0.45.

As to REWTEQETLLLLENLEMYKDDWNKVSEHVGSRTQDECILHFLR [A14N], the abundance fitness is -0.57 ± 0.28.

On to REWTEQETLLLLERLEMYKDDWNKVSEHVGSRTQDECILHFLR [A14R], for which the abundance fitness was -0.741 ± 0.094.

In the case of REWTEQETLLLLEFLEMYKDDWNKVSEHVGSRTQDECILHFLR [A14F], the abundance fitness was -1.05 ± 0.21.

Consider REWTEQETLLLLEKLEMYKDDWNKVSEHVGSRTQDECILHFLR [A14K], for which the abundance fitness was -0.844 ± 0.14.

As for REWTEQETLLLLETLEMYKDDWNKVSEHVGSRTQDECILHFLR [A14T], the abundance fitness is -0.864 ± 0.16.

On to REWTEQETLLLLEALGMYKDDWNKVSEHVGSRTQDECILHFLR [E16G], for which the abundance fitness was -0.152 ± 0.075.

Regarding REWTEQETLLLLEALVMYKDDWNKVSEHVGSRTQDECILHFLR [E16V], the abundance fitness was -0.501 ± 0.096.

As for REWTEQETLLLLEALKMYKDDWNKVSEHVGSRTQDECILHFLR [E16K], the abundance fitness was -0.059 ± 0.13.

Turning to REWTEQETLLLLEALEMYTDDWNKVSEHVGSRTQDECILHFLR [K19T], the abundance fitness was -0.003 ± 0.083.

Turning to REWTEQETLLLLEALEMYLDDWNKVSEHVGSRTQDECILHFLR [K19L], the abundance fitness is -0.458 ± 0.065.

As for REWTEQETLLLLEALEMYIDDWNKVSEHVGSRTQDECILHFLR [K19I], the abundance fitness was -0.303 ± 0.1.

For the variant REWTEQETLLLLEALEMYNDDWNKVSEHVGSRTQDECILHFLR [K19N], the abundance fitness stood at 0.29 ± 0.14.

On to REWTEQETLLLLEALEMYVDDWNKVSEHVGSRTQDECILHFLR [K19V], for which the abundance fitness is -0.256 ± 0.058.

For the variant REWTEQETLLLLEALEMYFDDWNKVSEHVGSRTQDECILHFLR [K19F], the abundance fitness is -0.151 ± 0.11.

Take REWTEQETLLLLEALEMYGDDWNKVSEHVGSRTQDECILHFLR [K19G]: the abundance fitness was -0.235 ± 0.06.
